Measured values reported in patent US20220177587A1, “METHODS AND USES OF VARIANT CD80 FUSION PROTEINS AND RELATED CONSTRUCTS” (Alpine Immune Sciences, Inc., priority 2018, published 2022).

Assays:
[1] = target: T1, CD28 (Homo sapiens, UniProt P10747); test: Jurkat/IL2 + CHO/OKT3 +/- PD-L1 reporter assay: PD-L1-dependent CD28 costimulation; type: cell-based; design: host or cells: Jurkat cells expressing an IL-2-luciferase reporter; details: Jurkat/IL2 + CHO/OKT3/PD-L1, 5.0 nM
Summary of the method: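 Jurkat reporter cells (100,000/well) preincubated 15 min at room temperature with test protein, then cocultured 5 h at 37 °C with CHO aAPCs bearing anti-CD3 scFv (OKT3) with or without PD-L1. Luciferase luminescence (RLU) read after lysis-substrate addition.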

[2] = target: huPD-L1 (Homo sapiens, UniProt Q9NZQ7); test: Flow binding to CHO cells stably expressing PD-L1; design: huCTLA4 and huPD-L1, full-length mammalian surface expression constructs were generated; expressed in transfected cells; host or cells: CHO cells, lentiviral transduction, sorted to >98% purity; details: for PD-L1 Fold change to WT CD80 / PD-L1 MFI at 33.3 nM: 33.3 nM; for PD-L1 MFI at 33.3 nM: CHO cells stably expressing PD-L1
Summary of the method: (§1)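 Fusion proteins bound to CHO cells stably expressing CTLA4 or PD-L1, or to Jurkat/IL2 reporter cells with endogenous CD28, for 45 min on ice after blocking in PBS/1% BSA. Detection with PE anti-human Fc by flow cytometry; PE MFI per cell type and binding EC50 determined.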

[3] = target: T1, CD28; test: Flow binding to Jurkat/IL2 reporter cells (CD28); design: host or cells: Jurkat cells expressing an IL-2-luciferase reporter; details: 33.3 nM; for CD28 MFI at 33.3 nM: Jurkats (CD28)
Summary of the method: as §1

[4] = target: huCTLA4 (Homo sapiens, UniProt P16410); test: Flow binding to CHO cells stably expressing CTLA4; design: huCTLA4 and huPD-L1, full-length mammalian surface expression constructs were generated; expressed in transfected cells; host or cells: CHO cells, lentiviral transduction, sorted to >98% purity; details: 33.3 nM; for CTLA4 MFI at 33.3 nM: CHO cells stably expressing CTLA4
Summary of the method: as §1

[5] = Table E11, listed as WT CD80 ECD-Fc = 1.0
[6] = Table E16, listed as CD80 WT IgV-Fc = 1.0
[7] = Table E10, relative to CD80 WT IgV-Fc
[8] = Table E10, binding to PD-L1 compared to binding to CD28

Chain of huCTLA4 (P16410 36-223): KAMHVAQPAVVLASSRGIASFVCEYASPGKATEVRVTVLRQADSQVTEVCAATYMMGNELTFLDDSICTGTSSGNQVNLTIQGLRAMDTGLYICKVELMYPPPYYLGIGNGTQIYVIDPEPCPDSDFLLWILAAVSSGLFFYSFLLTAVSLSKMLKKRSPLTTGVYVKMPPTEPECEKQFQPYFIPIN
Chain of huPD-L1 (Q9NZQ7 19-290): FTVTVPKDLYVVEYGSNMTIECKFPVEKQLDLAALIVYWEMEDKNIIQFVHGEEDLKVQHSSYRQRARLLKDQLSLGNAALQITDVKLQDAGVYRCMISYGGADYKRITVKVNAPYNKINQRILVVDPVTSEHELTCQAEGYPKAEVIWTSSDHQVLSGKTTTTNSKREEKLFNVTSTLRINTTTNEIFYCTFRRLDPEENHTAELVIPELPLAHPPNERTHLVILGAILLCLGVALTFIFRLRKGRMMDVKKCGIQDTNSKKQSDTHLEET

Row | Molecule | Fold Increase over WT CD80-IgV-Fe ([1]; Table E13) | Relative Luciferase Units (RLU), CD80 Cone 5.0 nM ([1]; Table E13) | PD-L1 Fold change to WT CD80 [2, 5] | PD-L1 MFI at 33.3 nM ([2]; Table E11) | Ratio of PDL1:CD28 ([2]; Table E11, MFI at 33.3 nM) | CD28 Fold change to WT CD80 [3, 5] | CD28 MFI at 33.3 nM ([3]; Table E11) | CTLA4 Fold change to WT CD80 [4, 5] | CTLA4 MFI at 33.3 nM ([4]; Table E11) | other results
1 | E35D/M43I/M47L/V68M (protein, UniProt P33681 35-288, looked up, variant E35D M43I M47L V68M) T-lymphocyte activation …: VIHVTKEVKEVATLSCGHNVSVEELAQTRIYWQKDKKMVLTMISGDLNIWPEYKNRTIFDITNNLSIMILALRPSDEGTYECVVLKYEKDAFKREHLAEVTLSVKADFPTPSISDFEIPTSNIRRIICSTSGGFPEPHLSWLENGEELNAINTTVSQDPETELYAVSSKLDFNMTTNHSFMCLIKYGHLRVNQTFNWNTTKQEHFPDNLLPSWAITLISVNGIFVICCLTYCFAPRCRERRRNERLRRESVRPV | 2.7 | 1072 RLU | 328.4 | 16912 | 11.1 | 48.3 | 1517 | 9.3 | 16243 | –
2 | E35D/M47L/Y53F/V68M/A71G/K93R/E95V (protein, UniProt P33681 35-288, looked up, variant E35D M47L Y53F V68M A71G K93R E95V) T-lymphocyte activation …: VIHVTKEVKEVATLSCGHNVSVEELAQTRIYWQKDKKMVLTMMSGDLNIWPEFKNRTIFDITNNLSIMILGLRPSDEGTYECVVLKYEKDAFRRVHLAEVTLSVKADFPTPSISDFEIPTSNIRRIICSTSGGFPEPHLSWLENGEELNAINTTVSQDPETELYAVSSKLDFNMTTNHSFMCLIKYGHLRVNQTFNWNTTKQEHFPDNLLPSWAITLISVNGIFVICCLTYCFAPRCRERRRNERLRRESVRPV | 3.9 | 1546 RLU | 485.9 | 25024 | 65.3 | 12.2 | 383 | 9.1 | 16013 | –
3 | H18Y/E35D/M47L/Y53F/V68M/A71G (protein, UniProt P33681 35-288, looked up, variant H18Y E35D M47L Y53F V68M A71G) T-lymphocyte activation …: VIHVTKEVKEVATLSCGYNVSVEELAQTRIYWQKDKKMVLTMMSGDLNIWPEFKNRTIFDITNNLSIMILGLRPSDEGTYECVVLKYEKDAFKREHLAEVTLSVKADFPTPSISDFEIPTSNIRRIICSTSGGFPEPHLSWLENGEELNAINTTVSQDPETELYAVSSKLDFNMTTNHSFMCLIKYGHLRVNQTFNWNTTKQEHFPDNLLPSWAITLISVNGIFVICCLTYCFAPRCRERRRNERLRRESVRPV | 0.3 | 120 RLU | 99.1 | 5105 | 325.2 | 0.5 | 15.7 | 0.1 | 146 | Fold Increase over WT CD80-IgV-Fe ([1]; Table E17): 5.7; Relative Luciferase Units (RLU), CD80 Cone 5.0 nM ([1]; Table E17, consensus variants): 2277 RLU; PD-L1 Fold change to WT CD80 [2, 6]: 135.1; Ratio of PDL1:CD28 ([2]; Table E16, MFI at 33.3 nM): 20.0; PD-L1 MFI at 33.3 nM ([2]; Table E16, consensus variants): 9576; CD28 Fold change to WT CD80 [3, 6]: 11.6; CD28 MFI at 33.3 nM ([3]; Table E16, consensus variants): 478; CTLA4 Fold change to WT CD80 [4, 6]: 18.7; CTLA4 MFI at 33.3 nM ([4]; Table E16, consensus variants): 19528
4 | H18Y/V22D/E35D/M47V/N48K/V68M (protein, UniProt P33681 35-288, looked up, variant H18Y V22D E35D M47V N48K V68M) T-lymphocyte activation …: VIHVTKEVKEVATLSCGYNVSDEELAQTRIYWQKDKKMVLTMMSGDVKIWPEYKNRTIFDITNNLSIMILALRPSDEGTYECVVLKYEKDAFKREHLAEVTLSVKADFPTPSISDFEIPTSNIRRIICSTSGGFPEPHLSWLENGEELNAINTTVSQDPETELYAVSSKLDFNMTTNHSFMCLIKYGHLRVNQTFNWNTTKQEHFPDNLLPSWAITLISVNGIFVICCLTYCFAPRCRERRRNERLRRESVRPV | 2.7 | 1072 RLU | 249.8 | 12867 | 50.1 | 8.2 | 257 | 9.0 | 15798 | –
5 | H18Y/E35D/M38I/M47L/V68M/L85M (protein, UniProt P33681 35-288, looked up, variant H18Y E35D M38I M47L V68M L85M) T-lymphocyte activation …: VIHVTKEVKEVATLSCGYNVSVEELAQTRIYWQKDKKIVLTMMSGDLNIWPEYKNRTIFDITNNLSIMILALRPSDEGTYECVVMKYEKDAFKREHLAEVTLSVKADFPTPSISDFEIPTSNIRRIICSTSGGFPEPHLSWLENGEELNAINTTVSQDPETELYAVSSKLDFNMTTNHSFMCLIKYGHLRVNQTFNWNTTKQEHFPDNLLPSWAITLISVNGIFVICCLTYCFAPRCRERRRNERLRRESVRPV | 0.5 | 198 RLU | 69.7 | 3589 | 214.9 | 0.5 | 16.7 | 0.1 | 139 | –
6 | H18Y/E35D/V68M/T79M/L85M (protein, UniProt P33681 35-288, looked up, variant H18Y E35D V68M T79M L85M) T-lymphocyte activation …: VIHVTKEVKEVATLSCGYNVSVEELAQTRIYWQKDKKMVLTMMSGDMNIWPEYKNRTIFDITNNLSIMILALRPSDEGMYECVVMKYEKDAFKREHLAEVTLSVKADFPTPSISDFEIPTSNIRRIICSTSGGFPEPHLSWLENGEELNAINTTVSQDPETELYAVSSKLDFNMTTNHSFMCLIKYGHLRVNQTFNWNTTKQEHFPDNLLPSWAITLISVNGIFVICCLTYCFAPRCRERRRNERLRRESVRPV | 2.9 | 1161 RLU | 289.5 | 14907 | 14.3 | 33.2 | 1041 | 9.3 | 16287 | –
7 | Q27L/E35D/M47V/I61V/L85M (protein) VIHVTKEVKEVATLSCGHNVSVEELALTRIYWQKDKKMVLTMMSGDVNIWPEYKNRTIFDVTNNLSIVILALRPSDEGTYECVVMKYEKDAFKREHLAEVTLSVKAD | – | – | – | – | – | – | – | – | – | Fold Increase over WT CD80-IgV-Fe ([1]; Table E12): 2.9; Relative Luciferase Units (RLU), CD80 Cone 5.0 nM ([1]; Table E12): 1166 RLU; PD-L1 MFI at 33.3 nM ([2]; Table E10): 2705; PD-L1 Fold change to WT CD80 [2, 7]: 38.5; Ratio of PDL1:CD28 [2, 8]: 12; CD28 MFI at 33.3 nM ([3]; Table E10): 230; CD28 Fold change to WT CD80 [3, 7]: 3.5; CTLA4 MFI at 33.3 nM ([4]; Table E10): 27881; CTLA4 Fold change to WT CD80 [4, 7]: 14.6
8 | E35D/T41S/N48T (protein) VIHVTKEVKEVATLSCGHNVSVEELAQTRIYWQKDKKMVLSMMSGDMTIWPEYKNRTIFDITNNLSIVILALRPSDEGTYECVVLKYEKDAFKREHLAEVTLSVKAD | – | – | – | – | – | – | – | – | – | Fold Increase over WT CD80-IgV-Fe ([1]; Table E12): 2.8; Relative Luciferase Units (RLU), CD80 Cone 5.0 nM ([1]; Table E12): 1136 RLU; PD-L1 MFI at 33.3 nM ([2]; Table E10): 2191; PD-L1 Fold change to WT CD80 [2, 7]: 31.2; Ratio of PDL1:CD28 [2, 8]: 30; CD28 MFI at 33.3 nM ([3]; Table E10): 72.4; CD28 Fold change to WT CD80 [3, 7]: 1.1; CTLA4 MFI at 33.3 nM ([4]; Table E10): 30262; CTLA4 Fold change to WT CD80 [4, 7]: 15.8
